Patent US20150160214A1, “Quantitation of Cellular Adhesion Dynamics Across Immobilized Receptors Under Rheological Shear Flow” (Mayo Foundation for Medical Education and Research, priority 2013, published 2015)

Assay: Conformational and thermodynamic classification of A1 domain variants (urea and thermal denaturation, CD, FL, ANS)
Format: physicochemical
Settings: not given
Description: Circular dichroism measurements were performed on a Model No. 420C circular-dichroism spectrometer (Aviv Biomedical, Inc., Lakewood Township, N.J.). All fluorescence (FL) measurements were performed on a Fluorolog3 spectrofluorometer (HORIBA Jobin-Yvon, Edison, N.J.) equipped with a Model No. LF1-3751 temperature controller (Wavelength Electronics Inc., Bozeman, Mont.). Near- and far-ultraviolet (UV) circular dichroism (CD), intrinsic protein FL, and ANS (8-anilino naphthalene sulfonic acid) […] spectra were determined as described in Tischer et al. (19). Urea denaturation (monitored by far-UV CD) and thermal denaturation (monitored by far-UV CD, intrinsic protein FL, and ANS FL) were performed and analyzed as previously described (19,20). Acrylamide quenching of intrinsic tryptophan fluorescence was performed and analyzed as described in Tischer et al. (19). All spectra were collected at 20° C.
The effects of mutations on the thermodynamic stability of A1 (18) was determined and a framework that incorporated partial unfolding as a means for enhancing the binding affinity of A1 for GPIba was developed (17). Initially, urea-temperature phase diagram method were used for assessing the reversible thermodynamics of unfolding at various temperatures (18,21), and more recently thermal denaturations were used to assess kinetic irreversibility (20,22). The inventor employed these methods using a variety of spectroscopic observables that assess the conformation of these A1 domain variants as a function of temperature and urea.
The observables included the following: (1) Far-UV CD to assess secondary structure content; (2) Near-UV CD to assess tertiary structure content; (3) Intrinsic protein FL to assess solvent exposure of tyrosine and tryptophan residues; (4) Acrylamide quenching of tryptophan FL to assess local solvent exposure of the single tryptophan residue; and (5) Binding of the molten globule indicator-dye, ANS, to assess exposure of hydrophobic surface area.
In total, these studies have provided metrics that are able to classify the conformation of A1 into three types, based on biophysical spectroscopy, as follows:
The type 2B mutations R1306Q and I1309V and the type 2M mutation G1324S have previously been characterized in this conformational class (18). In addition, R1308L and I1372S also belong to this class.
The type 2M mutation A1437T and the type 2B mutation R1341Q belong to this class.
The type 2M mutations F1369I, E1359K, I1425F, S1285F, and R1374H, and the type 2B mutations H1268D, P1337L, V1316M, and V1314D, belong to this class.

Substance | A1 domain Conformation | Conformational class (in words)
R1306Q: vWF A1 domain variant with type 2B vWD mutation R1306Q | N (N = “Native” (native structure with varying thermodynamic stability)) | global native fold
V1314D: vWF A1 domain variant with type 2B vWD mutation V1314D |  | significantly reduced tertiary structure content
H1308L: vWF A1 domain variant with type 2B vWD mutation, printed H1308L in Table 4, R1308L elsewhere | N (N = “Native” (native structure with varying thermodynamic stability)) | global native fold
R1341Q: vWF A1 domain variant with type 2B vWD mutation R1341Q |  | reduced secondary structure content
H1268D: vWF A1 domain variant with type 2B vWD mutation H1268D |  | significantly reduced tertiary structure content
I1309V: vWF A1 domain variant with type 2B vWD mutation I1309V | N (N = “Native” (native structure with varying thermodynamic stability)) | global native fold
V1316M: vWF A1 domain variant with type 2B vWD mutation V1316M |  | significantly reduced tertiary structure content
I1372S: vWF A1 domain variant with type 2B vWD mutation I1372S | N (N = “Native” (native structure with varying thermodynamic stability)) | global native fold

Same assay, conditions: urea and thermal denaturation

Substance | Thermodynamic stability
R1341Q: vWF A1 domain variant with type 2B vWD mutation R1341Q | low stability
